Measurements as given in the DeepSol protein solubility set.

Experiment: soluble on expression in E. coli; label from the status in PepcDB or PDB records

Sequence	soluble on expression in E. coli
MGSDKIHHHHHHMHVSLDTMVDTLKAAAESSRLRILALLSRGDLTVSDLTEILGQSQPRVSRHLKLLLEAGLIDRYQEGSWAFFRLSDADSARDFVMGLVSSIRGADPQVERDLERLASVKRKRQDRAAEYFSVNAASWDHIRSLHVPDRAVEAAMLKLVGKRPFQSMLDLGTGTGRLLEIFSPLYRRGVGIDMSREMLTVARANLDKAGVSNAQVRQGDIFSPPVERDAFDLVTIHQVLHYLDDPARAIHEAARLLRPSGRLVIVDFAPHTLEFLREEHAHMRLGFSDRQIGEWFAEAGLDLEDAQEFEPRGGSEPRLTVKLWLGRDRRLLIADPANDSQQTKVNSIGEIA	not soluble
SENVPFASKERADIFSMRTLIDFGGIAILHAYQSRISEYIAEKELSAMNVILKSQYDQYRNYQDSLDLIQMKYHDLKHQITALRAESDAEKRKKWIDAMEEEVSAFENMSKTGNQVLDTILAAKIFHCRKNHIQITCVADGKLLDFIHVTDLCSIFGNALDNAIEHVIMIPEAEKRLIHLTVSAKKSFVFIKIENYCEDKIQKNENDLITTTKADRQNHGFGLKSIRTVVEKYNGSVDFGVDQNWFELKILLPRVM	not soluble
MSGQSLTDRITAAQHSVTGSAVSKTVCKATTHEIMGPKKKHLDYLIQCTNEMNVNIPQLADSLFERTTNSSWVVVFKSLITTHHLMVYGNERFIQYLASRNTLFNLSNFLDKSGLQGYDMSTFIRRYSRYLNEKAVSYRQVAFDFTKVKRGADGVMRTMNTEKLLKTVPIIQNQMDALLDFNVNSNELTNGVINAAFMLLFKDAIRLFAAYNEGIINLLEKYFDMKKNQCKEGLDIYKKFLTRMTRISEFLKVAEQVGIDRGDIPDLSQAPSSLLDALEQHLASLEGKK	soluble
MTVTDRIFQNVAELSVPNFFITVEFSVMGNEMPEHIESFVLEKYQAILHGANGRKFVYTEGGWRLFFTFFPTDKVVDERYALKNKVQMKFHK	not soluble
MGSDKIHHHHHHMKAGISLSLSLALSCSAVAQGQKISVPPVFNIFELVIRQDKNNAYDSLAEKNITASVTGEPGTLAMYSAKKKTNPSVTYMYEIYADSDAYDKHLNSTSYKEFLRNSPDILETSQTRRIDVIPQFLADKKIVQNDSTINNFVIVDVKPELGQAFRHVVLPEMAQSIEREEGVLAMYAAIDKANRNRWYFYEIYASENAYQAHRLTPHFKAYINQTAEMTTYKEAIDIKPGLLMNKGGMRYENE	not soluble
TGLRPSGTVSCPICMDGYSEIVQNGRLIVSTECGHVFCSQCLRDSLKNANTCPTCRKKINHK	soluble
MNTNHYYIRYGCAITLYDNHVSERERLTPKELRFSIEKAVSSFRIQAQEPFSPGSKARFSFVKRKDGNTKNGIFLSPHIVTKDMHAQKVWTKASKFLEIDYLGKDNEREGLLKKDNVSMSNIPISGEYLTFGEKDTGRGSAKISVEEQTYGLITTLTPLKPALQVGKDNFCIIPDIPLNQMVDFIALFDKMQITHLSGEAMLGNIDNKGIPHRPKIFRGNFPNSPKSDRMGAIALLGAIGEFAKHAEFSTLAQKVLDSLKGST	not soluble
MESAGFHYKLDIPAGTPDCAIVLLHGSGRTEDDLISFGRAVFPTGALYAPRGAVAWENGFAFFRRKPDRELDIDDLKHQATRLCHFVAFVFQQTGRRPILVGYSNGAIIAAETICQAHHLSKGAILLRPLSPRKDQSLPNLAGYPVLLLAGASDDRRHPSDAPHLSEQLTSAGADAVLETINTGHGWAEDAADERLSRQWLARLPIA	not soluble
MSIEIANIKKSFGRTQVLNDISLDIPSGQMVALLGPSGSGKTTLLRIIAGLEHQTSGHIRFHGTDVSRLHARDRKVGFVFQHYALFRHMTVFDNIAFGLTVLPRRERPNAAAIKAKVTKLLEMVQLAHLADRYPAQLSGGQKQRVALARALAVEPQILLLDEPFGALDAQVRKELRRWLRQLHEELKFTSVFVTHDQEEATEVADRVVVMSQGNIEQADAPDQVWREPATRFVLEFMGEVNRLQGTIRGGQFHVGAHRWPLGYTPAYQGPVDLFLRPWEVDISRRTSLDSPLPVQVLEASPKGHYTQLVVQPLGWYNEPLTVVMHGDDAPQRGERLFVGLQHARLYNGDERIETRDEELALAQSA	soluble
MAHHHHHHMLRGTRGFLAVSPGVGIAPETTPVKYTPMMLNIQNMMWWNGKRNLYRATYREKTWYEISRTGAFTKGRRPVMRQKYSREALQAALAMVPPGFEVADVPRPPQRILAQSEGIVGRWYSNYWTLHSMRYQCLLAGVEWPLGERQRPRTNYDEPFFFADFEESKAIQDYRSRWINVNRSLVGMTKRMKEAEEEARYMQFRKLQDTFWSNRKVLVNRVKSMYNQGARTSAKDMPIKTINIKAFLSE	not soluble
MGSDKIHHHHHHMVKGLYTAHTGMVNEMKRMDVLANNLANSDTYGFKKEGTTSHSFKNELAIKIKDTSNYGLHKNLGSMTYGVHLGETYTDWDEGSFKVTDNPTDLAIGGKGFFAVAFTDKSGQTSVKYTRDGAFKVNADGYLVTADGDHVLNATGALSGDGGEANWVKVDPNEKFSVNSLGYITQNNQLVGTIGVVDVDNYDYIEKYGENLYNLTAGGNIIASDAEIEQGALETSNVNVVNEMVLG	not soluble
NTDKHIYLEEHISPESQPMLSTYFRSMGKPRSIKENVLTVPQDASPETLALYYFARIYLERYEGVPLPDDMPDLIEFGRKHNMPWVVAEAKLNKAIRMIELDDDWHAELLLHDVIGESRDIGYLALQGRAYRWMGNLEIARNQIHNGLKHYRTAYELLENTVFEIQVAMTLNNIGTVYLDSSDWNRASNYLKQALDVYESSEYEYDNS	not soluble
MIVAFCLYKYFPFGGLQRDFMRIASTVAARGHHVRVYTQSWEGDCPKAFELIQVPVKSHTNHGRNAEYYAWVQNHLKEHPADRVVGFNKMPGLDVYFAADVCYAEKVAQEKGFLYRLTSRYRHYAAFERATFEQGKSTKLMMLTDKQIADFQKHYQTEPERFQILPPGIYPDRKYSEQIPNSREIYRQKNGIKEQQNLLLQVGSDFGRKGVDRSIEALASLPESLRHNTLLFVVGQDKPRKFEALAEKLGVRSNVHFFSGRNDVSELMAAADLLLHPAYQEAAGIVLLEAITAGLPVLTTAVCGYAHYIADANCGTVIAEPFSQEQLNEVLRKALTQSPLRMAWAENARHYADTQDLYSLPEKAADIITGGLDG	soluble
NPNTCTESIGKVAPSYVDEPESEAPATAENTQPDVIIDWQAALKQSANKEDLAKDMLRMLIDFIPEVEEVVDHALEQDDYSREELIHVIHKLHGSSSYCGVPRLKSLCATLEHALRSGASIEEIEPEMFELQDEMIKVTTTAKLYLEQ	not soluble
MATITDNDVALTITKIHQIQGSGTAFNSAFGGIRTIEGVVVAAFPGGSGLNGFFVQEEDADTDNDSTTSEGIFVFDPTGQFSGSVGDKVRVTGSVSEFSTNNGVSSLTQLSSVSSIINLGADILPKMSNIQLPVTTVADLERYEGMRVNISAGNGDLTVTEHFQLGRFGQVVLSATGTSNQPGTDGRLEQYTQFNDPSVAGYAAYLDEIAKRRIILDDGSSTQNPATIIFGRGGEPLSATNTLRGGDTVASITGVLDQRFEGYRVQTSTGVDFTPANPRPATTPDVGGTLKVASFNVLNYFNGDLEHHHHHH	not soluble
MSLEEKPKYKRILLKLSGEAFAGEQGYGIDPAFLEYISHEIKNVYDLGVQVAIVIGGGNIFRGFQGKEIGVDRATADYMGMLATVINALALQSALENHVNIPTRVLSAIEMRQVAEPYIRRRAIRHLEKGRIVIFAGGTGNPFFSTDTAAALRAAEIGAEVLIKATKVGGIYDKDPEKYPDAVLIKEISYLEVINMGLKVMDHTALTLCKENEIPIIVLNVKEKGNLRRAVLGEEVGSVVRGEGHHHHHH	soluble
MGSDKIHHHHHHMKRLITQALDGEAGCILSDCEQYRYRLWREWDRSAPGLGFIMLNPSSADHQVNDPTITRCLQRALAGKYGRLEVVNLFPLRSTDPDGLLTHPAPLGDRPDRNECAIMDALDRCSLVICAWGAHKAAPARAAEVLRIVRMCGRGNLLYHLGLNKDGSPKHPLYIAKTKRPEPFTSIPVTQVNREYAPHR	not soluble
MKSTFSVLFFVKKDKQKINGSYPIFVRITIDGVASRFNSKLDVQPKLWDGKAGKAAGRSAEATRINRLLDDINASLNTIYHELQRRDNYVTAEKVKNEFLGHSENHDTILNLFQKHNDDVKQLVGISKTIATYRKYEVTRRHLAEFIQSKYNLSDISIKEITPMFITDFELYLRTTCKCGYNTTAKFMQFFKRIILIARNNGILIGDPFANYKIRLEKVDRGYLTEDEIKIILKKKMVSERLEQVRDVFIFSCFSGLAYVDVANLKEDNIRKSFDGNLWIITKRQKTNTDVNVPLLDIPKMILEKYKGKLPNGKVLPIISNQK	not soluble
MGSDKIHHHHHHMVLALNYNMHGVNIRSENAAKPHTMPSRYLCEYIRSIEKNGHALDFGCGKLRYSDELISKFDEVTFLDSKRQLEREQIIRGIKTKIIDYVPRYYKNANTVAFEDVDKIIGGYDFILCSNVLSAVPCRDTIDKIVLSIKRLLKSGGETLIVNQYKSSYFKKYETGRKHLYGYIYKNSKSVSYYGLLDELAVQEICSSHGLEILKSWSKAGSSYVTVGSCNAI	not soluble
MGSDKIHHHHHHMHPNIATLLSANLGESRTRHLLSLVSVPDGLPSDAEGRATRAEIAQALNMVLFAGILDRVPTGRAYTDDVAATGGKVVFDHGALRTVKWRDNGALPEGEAAFTRILRPLGYRLNGNYPLDRISMTGRSYAHADAPEGIAQFFVSEFHPERFSDAFREAVGRVTGNSADPLTPRAQTLLWQLDRDGVLTVADGAELIGLLVPCFERQHGVPRLADYETLLRESAEMAWIATEGNAFNHATDRVDDVFGLSEQQKALGRPMKDKVEVSGSGRVKQTAFRADTVRRQFIGAQGETVERDVPGSFYEFITRDRFADAPAASPRVDLGFDAGNAQGIFKMTAAV	not soluble
MIHDYHWRRGKRRKLIVMMETRMMIIMMTIKPPHDIYREQQNHHDDETKRSTKHCVTATHPWPRPAASCFRCPLRGGHHRRRPACALPHGWSVMNSCSLEHHHHHH	not soluble
MANLCKRVVDLEKYIVKEAPPTVYYIPDFISEAEEEFLLQQVYRAPKPKWTQLSGRRLQNWGGLPNPKGMLAEKLPDWLLEYTEKISALGAFAGKTANHVLVNEYKPGEGIMPHEDGPLYHPTVTTITVGSHTLLDFYRPVCQAEPDAPQTEESRYMLSLLVQRKSLLILQDDMYKCYLHGIRGVCEDVLSEHVVNISSTGAQVGDTLPRSTRVSLTIRHVPKIIRANLFLGKK	not soluble
MSLTWFDLVTPKSVMFFKPFIEELKRRDREVLVTAREGEGYSEVVELLNLYKIPFFNRGGFGGAKLCDKLKASIHRQLELMEFIEQHSIKRLVCLCSVDANRVAFGLGIPIVNFYDIPLSDYKTDFRRALPQARLTLPLSNKAFRPFMVPEEIFFRFGLEHDQIFEYGFLDVVAWLRDFQPSREFYEKVLKDYGLDTSLPTIVVREEEYKASYVMKKYPILYEGLKVLKERLRANILVIPRYEPEAVAELLPFAKVLKEKIVIQHILAYCDLFIGGGGTLNSEACFFGTPTISTRSFVSHYDKFLMDLALMDKVDSIEELIIKAERIIGNRNGYAKQIFDRMEFDVGSMVDEILKEKEGAEGHHHHHH	soluble
MTLDVGPEDELPDWAAAKEFYQKYDPKDVIGRGVSSVVRRCVHRATGHEFAVKIMEVTAERLSPEQLEEVREATRRETHILRQVAGHPHIITLIDSYESSSFMFLVFDLMRKGELFDYLTEKVALSEKETRSIMRSLLEAVSFLHANNIVHRDLKPENILLDDNMQIRLSDFGFSCHLEPGEKLRELCGTPGYLAPEILKCSMDETHPGYGKEVDLWACGVILFTLLAGSPPFWHRRQILMLRMIMEGQYQFSSPEWDDRSSTVKDLISRLLQVDPEARLTAEQALQHPFFERCEGSQPWNLTPRQRFRVAVWTVLAAGRVALSTHRVRPLTKNALLRDPYALRSVRHLIDNCAFRLYGHWVKKGEQQNRAALFQHRPPGPFPIMGPEEEGDSAAITEDEAVLVLG	soluble
